Patent US20090298167A1 (Pfizer, published 2009)
Positions count from the first letter of the chain named.

B1: scFv H3 (scFv)
scFv: QVQLQESGPGLVKTSETLSLTCAVSGYSISSGYYWGWIRQPPGKGLEWIGSISHTGNTYYNPPLKSRVTISVDTSKNQFSLKLSSVTAADTAVYYCARFMGFGRPEYWGKGTLVTVSSGGGGSGGGGSGGGGSALSSELTQDPPVSVALGQTVTLTCQGDSLRTYYASWYQQKSGQAPILLLYGKHKRPSGIPDRFSGSTSGDTASLTITGAQAEDEADYYCNSRDSSGNPHVLFGGGTQLTVL
B2: scFv H4 (scFv)
scFv: B1 scFv with F99W, M100L
B3: scFv L20 (scFv)
scFv: B1 scFv with F99G, M100G, F102I, G103S, N223V, D226S, S227A, S228K
B4: scFv H6 (scFv)
scFv: B1 scFv with M100F
B5: scFv L5 (scFv)
scFv: B1 scFv with F99G, M100G, F102I, G103S, N223A, D226S, S228K
B6: scFv L17 (scFv)
scFv: B1 scFv with F99G, M100G, F102I, G103S, N223S, S224T, D226S, S227R, S228K
B7: scFv L6 (scFv)
scFv: B1 scFv with F99G, M100G, F102I, G103S, N223M, D226S, S227I, S228W
B8: scFv L24 (scFv)
scFv: B1 scFv with F99G, M100G, F102I, G103S, N223I, S224A, D226S, S227N, S228K
B9: scFv L16 (scFv)
scFv: B1 scFv with F99G, M100G, F102I, G103S, N223V, S224T, D226S, S227A, S228K
B10: scFv H5 (scFv)
scFv: B1 scFv with M100L
B11: scFv L8 (scFv)
scFv: B1 scFv with F99G, M100G, F102I, G103S, N223T, S224T, D226S, S227T, S228Q
B12: scFv L12 (scFv)
scFv: B1 scFv with F99G, M100G, F102I, G103S, N223V, S224A, D226G, S227T, S228R
B13: scFv L18 (scFv)
scFv: B1 scFv with F99G, M100G, F102I, G103S, N223V, S224T, D226S, S227V, S228K
B14: scFv L1 (scFv)
scFv: B1 scFv with F99G, M100G, F102I, G103S, N223A, D226S, S227V
B15: scFv L13 (scFv)
scFv: B1 scFv with F99G, M100G, F102I, G103S, N223V, S224T, D226N, S227R, S228Y
B16: scFv L3 (scFv)
scFv: B1 scFv with F99G, M100G, F102I, G103S, N223V, D226A, S227V, S228V
B17: scFv L9 (scFv)
scFv: B1 scFv with F99G, M100G, F102I, G103S, N223V, S224A, D226S, S227N, S228K
B18: scFv L19 (scFv)
scFv: B1 scFv with F99G, M100G, F102I, G103S, N223V, S224A, D226A, S227V, S228R
B19: scFv L11 (scFv)
scFv: B1 scFv with F99G, M100G, F102I, G103S, N223S, D226S, S227R, S228H
B20: scFv L14 (scFv)
scFv: B1 scFv with F99G, M100G, F102I, G103S, N223M, S224A, D226S, S227R, S228K
B21: scFv L25 (scFv)
scFv: B1 scFv with F99G, M100G, F102I, G103S, N223T, S224T, D226S, S227N, S228K
B22: scFv L10 (scFv)
scFv: B1 scFv with F99G, M100G, F102I, G103S, N223I, D226S, S227I, S228Y
B23: scFv L4 (scFv)
scFv: B1 scFv with F99G, M100G, F102I, G103S, N223S, S224T, D226S, S228K
B24: scFv L23 (scFv)
scFv: B1 scFv with F99G, M100G, F102I, G103S, N223S, S224A, D226S, S227V, S228R
B25: scFv L15 (scFv)
scFv: B1 scFv with F99G, M100G, F102I, G103S, N223S, S224T, D226A, S227I, S228H
B26: scFv L2 (scFv)
scFv: B1 scFv with F99G, M100G, F102I, G103S, N223V, S224A, D226S, S227V, S228V
B27: scFv L21 (scFv)
scFv: B1 scFv with F99G, M100G, F102I, G103S, N223A, S224T, D226A, S227V, S228R

Biological target: human IL-21R expressed on cells (human, UniProt Q9HBE5 20-538)
Sequence (Q9HBE5 20-538 limits assumed): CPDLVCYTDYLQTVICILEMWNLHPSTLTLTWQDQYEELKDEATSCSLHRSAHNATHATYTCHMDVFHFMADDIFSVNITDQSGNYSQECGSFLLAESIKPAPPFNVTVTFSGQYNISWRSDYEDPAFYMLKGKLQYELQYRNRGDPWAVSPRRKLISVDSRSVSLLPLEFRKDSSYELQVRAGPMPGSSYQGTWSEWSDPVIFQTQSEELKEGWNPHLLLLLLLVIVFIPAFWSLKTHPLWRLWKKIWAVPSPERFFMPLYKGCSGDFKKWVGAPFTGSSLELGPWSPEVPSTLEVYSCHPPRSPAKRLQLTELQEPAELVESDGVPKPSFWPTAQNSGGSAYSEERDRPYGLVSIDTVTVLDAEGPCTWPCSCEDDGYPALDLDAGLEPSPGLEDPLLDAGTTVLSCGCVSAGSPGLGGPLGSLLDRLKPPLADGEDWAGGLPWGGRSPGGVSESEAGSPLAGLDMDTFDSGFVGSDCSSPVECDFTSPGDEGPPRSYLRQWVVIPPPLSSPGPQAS
Assay: cell-based or functional assay

Row | IC50 (nM) in Human IL-21R-BaF3 Neutralization Assay [nM] | IC50 (nM) in Human IL-21R-TF1 Neutralization Assay [nM] | Binder
1 | 7.7 | 98.1 | B1
2 | 3.8 | 9.3 | B2
3 | 3.1 | 57.5 | B3
4 | 13.8 | ~150 | B4
5 | 2.1 | ~20 | B5
6 | 1.6 | 60.3 | B6
7 | 5.9 | ~150 | B7
8 | 2.4 | 18.7 | B8
9 | 3.7 | 67.4 | B9
10 | 7.9 | 178 | B10
11 | 4.1 | 51.3 | B11
12 | 2.6 | 54.9 | B12
13 | 3.7 | 54.4 | B13
14 | 3.7 | ~55 | B14
15 | 11 | 257 | B15
16 | 27.6 | ~7 | B16
17 | 2.8 | 27.7 | B17
18 | 4.5 | 35.3 | B18
19 | 4.2 | 38.3 | B19
20 | 3.2 | 33.5 | B20
21 | 3.7 | 33.1 | B21
22 | 15.1 | 7 | B22
23 | 2.1 | ~60 | B23
24 | 1.5 | 15.3 | B24
25 | 3.3 | 30.3 | B25
26 | 3.1 | 37.5 | B26
27 | 9.4 | ~100 | B27

Biological target: murine IL-21R expressed on cells (murine, UniProt Q9JHX3 20-529)
Sequence (Q9JHX3 20-529 limits assumed): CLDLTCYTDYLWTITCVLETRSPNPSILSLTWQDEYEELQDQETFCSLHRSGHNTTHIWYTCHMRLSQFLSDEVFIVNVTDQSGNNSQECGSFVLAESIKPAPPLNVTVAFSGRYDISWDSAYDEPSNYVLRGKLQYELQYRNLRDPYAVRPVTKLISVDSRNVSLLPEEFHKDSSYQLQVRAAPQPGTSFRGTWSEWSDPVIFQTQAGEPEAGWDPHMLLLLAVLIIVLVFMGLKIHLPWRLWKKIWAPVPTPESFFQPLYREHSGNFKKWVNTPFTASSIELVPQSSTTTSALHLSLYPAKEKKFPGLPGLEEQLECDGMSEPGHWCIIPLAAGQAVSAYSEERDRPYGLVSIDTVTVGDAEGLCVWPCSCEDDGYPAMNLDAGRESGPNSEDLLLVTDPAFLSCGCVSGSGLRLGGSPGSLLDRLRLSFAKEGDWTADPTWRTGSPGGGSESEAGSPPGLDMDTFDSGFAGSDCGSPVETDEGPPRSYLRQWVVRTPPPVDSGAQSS
Assay: cell-based or functional assay

Row | IC50 (nM) in Murine IL-21R-BaF3 Neutralization Assay [nM] | Binder
28 | 25.7 | B1
29 | 15.4 | B3
30 | 38.5 | B5
31 | 2.66 | B6
32 | 0.29 | B7
33 | 3.73 | B8
34 | 4.71 | B9
35 | 53.7 | B10
36 | 715 | B11
37 | 87.8 | B12
38 | 8.34 | B13
39 | 28.8 | B14
40 | 1.25 | B15
41 | 13.8 | B16
42 | 3.61 | B17
43 | 13.6 | B18
44 | 10 | B19
45 | 6.49 | B20
46 | 15.6 | B21
47 | 53.5 | B25
48 | 2.41 | B26
49 | 162 | B27
